System: peptide library, one residue held at a place counted from the Y acceptor
Test: relative phosphorylation of the sub-library (ratio to the mean residue at this position); higher = residue favoured
Outline: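 Purified recombinant kinases were given 50 μM ATP with γ-32P-ATP and biotinylated Tyr-centred peptide library mixtures for 90 min in 384-well plates. Peptides bound to streptavidin membranes were rinsed and quantified by phosphorimaging, and intensities were normalized per position by the sum of the 18 randomized residues (16 with the Ser/Thr-free library) and multiplied by that number. The reported values are phosphorylation relative to the mean randomized residue.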

DDR1, construct: aa444-end, human, sequence (Q08345 444-913, looked up): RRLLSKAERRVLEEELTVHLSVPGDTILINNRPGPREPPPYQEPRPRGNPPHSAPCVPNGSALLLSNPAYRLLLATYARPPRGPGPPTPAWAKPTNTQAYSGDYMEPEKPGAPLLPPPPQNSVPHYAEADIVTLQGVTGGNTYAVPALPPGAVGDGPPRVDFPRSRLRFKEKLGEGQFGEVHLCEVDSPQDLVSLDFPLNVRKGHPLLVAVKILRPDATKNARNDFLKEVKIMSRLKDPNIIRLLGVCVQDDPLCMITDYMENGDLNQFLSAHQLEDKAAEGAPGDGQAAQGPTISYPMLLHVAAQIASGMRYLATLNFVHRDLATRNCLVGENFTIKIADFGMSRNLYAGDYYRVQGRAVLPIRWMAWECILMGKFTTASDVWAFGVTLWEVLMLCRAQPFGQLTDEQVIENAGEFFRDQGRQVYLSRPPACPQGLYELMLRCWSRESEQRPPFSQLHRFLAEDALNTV
EPHA2, construct: aa561-end, human, sequence (P29317 561-976, looked up): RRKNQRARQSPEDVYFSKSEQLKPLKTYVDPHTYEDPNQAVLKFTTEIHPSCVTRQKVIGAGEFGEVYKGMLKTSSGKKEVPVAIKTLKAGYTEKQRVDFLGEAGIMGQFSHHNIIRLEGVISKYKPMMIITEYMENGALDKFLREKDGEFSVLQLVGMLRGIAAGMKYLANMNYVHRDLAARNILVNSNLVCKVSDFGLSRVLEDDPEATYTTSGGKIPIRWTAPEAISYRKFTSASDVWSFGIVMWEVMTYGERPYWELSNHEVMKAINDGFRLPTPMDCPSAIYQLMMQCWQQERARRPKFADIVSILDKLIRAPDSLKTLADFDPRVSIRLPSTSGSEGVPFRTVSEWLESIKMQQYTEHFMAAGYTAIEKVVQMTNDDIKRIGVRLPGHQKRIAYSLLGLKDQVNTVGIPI
DDR2, construct: aa522-end, human, sequence (Q16832 522-855, looked up): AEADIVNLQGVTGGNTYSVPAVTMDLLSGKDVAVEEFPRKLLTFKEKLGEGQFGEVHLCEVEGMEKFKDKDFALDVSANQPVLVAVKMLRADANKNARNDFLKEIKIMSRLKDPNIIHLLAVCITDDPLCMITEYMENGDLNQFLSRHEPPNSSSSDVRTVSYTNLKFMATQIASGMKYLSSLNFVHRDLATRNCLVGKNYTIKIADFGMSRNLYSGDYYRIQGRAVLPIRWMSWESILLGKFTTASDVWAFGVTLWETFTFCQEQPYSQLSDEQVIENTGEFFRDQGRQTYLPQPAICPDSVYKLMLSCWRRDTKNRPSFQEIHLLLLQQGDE

DDR1, construct: aa444-end, human (from UniProt Q08345)
relative phosphorylation
Conditions	at +1	at +2	at +3	at +4	at +5	at -1	at -2	at -3	at -4	at -5
A fixed	1.61	0.998	0.762	0.858	0.675	1.07	1.08	1.02	1.18	1.16
D fixed	0.629	0.815	0.717	0.883	0.561	1.35	0.723	0.719	0.772	0.767
E fixed	0.665	1.36	0.716	0.964	0.549	0.785	0.748	0.717	0.798	0.759
F fixed	1.62	1.04	1.38	2.72	3.66	1.13	0.804	1.18	1.16	1.38
G fixed	0.639	0.629	0.633	0.621	0.701	0.7	1.07	0.946	1.05	1.06
H fixed	1.07	0.986	1.16	1.19	1.03	1.14	1.24	1.45	1.13	1.13
I fixed	0.955	1.1	1.63	1.01	1.49	0.938	0.721	0.828	0.716	0.728
K fixed	0.817	0.809	0.736	0.743	0.623	0.81	1.44	1.35	1.4	1.34
L fixed	0.781	1.42	1.56	0.985	1.21	0.958	0.794	0.773	0.81	0.736
M fixed	0.972	1.26	1.58	0.982	1.08	0.825	0.79	0.82	0.949	0.816
N fixed	0.846	0.891	0.755	0.75	0.586	2.03	1.24	1.05	0.924	1.03
P fixed	0.677	0.738	0.619	0.752	1.05	0.971	1.18	0.871	1.05	1.02
Q fixed	0.916	0.888	0.74	0.806	0.598	0.934	1.05	0.96	1.09	1.02
R fixed	0.963	0.845	0.784	0.807	0.732	0.806	1.63	1.49	1.48	1.44
S fixed	0.974	0.796	0.602	0.56	0.617	0.92	1.11	0.975	0.835	0.896
T fixed	1.14	0.912	0.744	0.678	0.667	0.835	0.904	0.91	0.829	0.853
V fixed	1.72	1.29	1.46	1.25	1.02	0.917	0.73	0.786	0.798	0.823
W fixed	1	1.22	1.43	1.44	1.14	0.886	0.747	1.15	1.03	1.04
pThr fixed	0.793	1.37	0.799	1.1	0.686	0.743	0.653	0.678	0.726	0.775
pTyr fixed	1.03	2	0.914	1.43	0.653	0.867	0.713	0.849	0.908	0.953

DDR2, construct: aa522-end, human (from UniProt Q16832)
relative phosphorylation
Conditions	at +1	at +2	at +3	at +4	at +5	at -1	at -2	at -3	at -4	at -5
A fixed	2.33	0.781	0.51	0.457	0.507	1.2	0.969	0.938	0.924	1.1
D fixed	0.221	0.71	0.309	1.13	0.445	1.83	0.707	0.692	0.688	0.848
E fixed	0.206	1.66	0.283	1.36	0.393	0.583	0.635	0.567	0.724	0.771
F fixed	0.905	0.738	1.38	2.06	2.29	0.517	0.358	1.13	0.728	0.723
G fixed	0.361	0.37	0.296	0.372	0.632	0.617	1.19	1.09	1.43	1.38
H fixed	0.894	0.92	0.901	1.63	0.817	1.14	1.58	1.82	1.29	1.17
I fixed	1.13	1.08	3.3	1.09	2.43	0.879	0.316	0.472	0.627	0.548
K fixed	0.899	0.687	0.35	0.56	0.607	0.653	1.85	1.44	1.6	1.42
L fixed	0.602	1.42	1.94	0.851	1.4	0.828	0.449	0.466	0.581	0.702
M fixed	1.12	1.3	2.09	0.824	1.08	0.593	0.597	0.534	0.933	0.787
N fixed	0.502	1.03	0.365	1.05	0.747	2.72	1.66	1.3	0.985	1.01
P fixed	0.745	0.655	0.306	0.383	0.962	1.57	1.55	1.15	1.52	1.45
Q fixed	0.823	0.933	0.505	1.02	0.56	0.829	1.1	0.917	1.01	0.996
R fixed	1.38	0.825	0.49	0.88	0.861	0.656	2.03	1.96	1.89	1.67
S fixed	1.04	1.14	0.464	0.701	0.586	0.989	1.21	0.968	0.876	1.02
T fixed	1.54	1.18	0.991	0.855	0.688	1.11	1.03	0.906	0.858	0.905
V fixed	2.79	1.32	1.95	1.02	1.76	0.839	0.372	0.553	0.651	0.73
W fixed	0.511	1.24	1.58	1.76	1.24	0.438	0.383	1.1	0.679	0.754
pThr fixed	0.698	1.61	0.5	1.87	0.616	0.706	0.487	0.467	0.612	0.696
pTyr fixed	0.68	2.07	0.439	2.16	0.38	0.474	0.473	0.614	0.613	0.75

EGFR, construct: aa668-end, human (from UniProt P00533)
relative phosphorylation
Conditions	at +1	at +2	at +3	at +4	at +5	at -1	at -2	at -3	at -4	at -5
A fixed	0.795	0.684	0.702	0.943	1.08	0.639	1.08	0.898	1.14	0.991
D fixed	0.496	1.29	1.17	1.09	1.12	2.93	1.74	2.12	1.58	1.34
E fixed	0.948	1.95	1.08	1.42	1.06	2.35	1.92	2.39	1.59	1.2
F fixed	2.04	1.23	1.06	0.967	1.06	0.716	0.637	0.848	1.01	0.989
G fixed	0.246	0.422	0.884	1.19	1.11	0.487	1.09	1.03	1.1	1.24
H fixed	1.4	0.836	0.882	1.08	0.904	0.988	0.813	0.949	0.77	0.989
I fixed	1.85	1.12	1.72	0.823	0.785	1.77	0.862	0.601	0.801	0.955
K fixed	0.26	0.498	0.34	0.895	0.935	0.315	0.605	0.561	0.789	0.794
L fixed	0.988	0.964	1.51	0.756	0.918	1.07	0.831	0.748	0.992	1
M fixed	0.826	1.03	1.02	1.11	0.902	0.757	0.821	0.776	0.855	0.96
N fixed	0.383	1.01	0.61	0.783	0.881	1.09	1.06	1.2	0.917	1.1
P fixed	0.313	0.623	0.824	1.1	1.66	0.721	1.11	0.934	1.1	1.07
Q fixed	0.804	0.905	0.941	0.969	0.827	0.768	1.13	0.881	1.08	0.954
R fixed	0.299	0.685	0.665	0.978	0.825	0.317	0.575	0.586	0.763	0.87
S fixed	0.762	0.843	0.79	0.931	1.14	0.546	1.13	0.995	0.827	0.88
T fixed	1.09	0.907	0.956	0.964	0.913	0.784	0.923	0.935	0.672	0.802
V fixed	2.64	1.05	1.47	0.88	0.899	1.16	0.979	0.7	0.825	0.851
W fixed	1.85	1.96	1.37	1.12	0.981	0.598	0.708	0.843	1.19	1
pThr fixed	1.41	1.5	0.796	1.02	1.08	2.05	1.57	1.61	1.41	1.2
pTyr fixed	11.9	5.31	0.921	1.45	1.01	5.3	2.06	2.19	2.18	1.69

EPHA2, construct: aa561-end, human (from UniProt P29317)
relative phosphorylation
Conditions	at +1	at +2	at +3	at +4	at +5	at -1	at -2	at -3	at -4	at -5
A fixed	1.31	0.627	0.592	0.785	0.992	0.392	1.11	0.791	1.04	0.971
D fixed	0.849	1.83	0.379	0.913	1.26	3.48	1.25	1.54	1.25	1.23
E fixed	2.74	2.13	0.34	1.28	1.22	2.02	1.74	1.76	1.41	1.03
F fixed	0.725	1.35	1.4	1.13	1.1	0.943	0.617	1.32	1.09	1.12
G fixed	0.517	0.298	0.508	1.15	1.15	0.198	1.22	0.847	1.26	1.15
H fixed	1.65	0.815	0.725	1.29	0.993	0.836	0.817	1.06	0.843	0.916
I fixed	1.84	1.08	3.27	0.777	0.778	1.92	0.914	0.914	0.999	1.04
K fixed	0.165	0.339	0.183	0.567	0.616	0.17	0.657	0.502	0.737	0.873
L fixed	0.892	0.944	1.84	0.662	0.877	1.83	0.82	0.873	1.05	1.05
M fixed	1.62	0.988	1.64	0.989	0.87	0.733	0.654	0.809	0.986	0.978
N fixed	0.322	1.07	0.395	0.718	0.8	1.83	1.3	1.07	0.802	1.06
P fixed	0.15	0.54	1.33	1.52	1.67	0.257	1.24	1.08	1.07	0.972
Q fixed	0.852	0.723	0.628	0.844	0.773	0.351	1.01	0.774	1.05	0.986
R fixed	0.18	0.481	0.262	0.692	0.613	0.219	0.832	0.607	0.871	0.92
S fixed	0.61	0.691	0.426	1.02	1.02	0.366	1.39	0.923	0.815	0.835
T fixed	0.783	0.816	0.621	0.886	1.22	0.931	1	0.903	0.79	0.827
V fixed	1.81	1.05	2.07	0.759	0.827	0.974	0.838	0.888	0.802	0.9
W fixed	0.979	2.23	1.4	2.02	1.21	0.554	0.61	1.34	1.12	1.15
pThr fixed	2.09	2.85	0.454	1.09	0.852	3.53	0.956	0.833	1.22	1.26
pTyr fixed	3.93	7.03	1.08	1.44	1.31	4.75	1.15	1.43	1.54	1.4
